In the supplement of paper PMC12042874:
± gives the uncertainty stated by the source.

Test: amyloid nucleation score (Sup35N fusion, yeast selection) (log enrichment); library NNK3; higher = more nucleation; inactive = no reads after selection
Procedure, shortened: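 Sup35N fusions to peptides of 20 random codons were expressed in psi-negative yeast, induced 24 hours with 100 μM copper sulfate, and grown 7 days at 30°C on medium lacking adenine and uracil. Input and output plasmid inserts were sequenced by Illumina. The nucleation score is the DiMSum log enrichment of output over input reads, centred on the mode score of non-aggregating sequences. Sequences with under 100 input reads were excluded.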

Substance | amyloid nucleation score
PNQYWQ | inactive
YSSMYFL | inactive
RREYVVGNSFFYNY | 1.19 ± 0.093
TTEMWKALACPSHRTTRPCS | inactive
VLILFVCPNFVLGSGVLIGW | inactive
LQDKQCHVWDYASGIAYVVE | inactive
LSYVRCVRWWY | inactive
HSYTWICVARLPHWFWTQCL | 1.71 ± 0.075
SLSSSWFFNISSNADMPCYN | inactive
PGNEEVGTNCMLTSNLTYVH | inactive
GLYSLYLFGTLYRQAQRGCE | 0.52 ± 0.21
WLLPQKGLMG | inactive
FRSAYDYNFC | inactive
SKFRFGRVNLNVT | inactive
QQCVTLQIYTMFKLRDYPA | 0.503 ± 0.24
LQYLRDCEFCRYVCYCNWLY | 0.443 ± 0.34
CFDLVCTLCFLFRLARVVEW | inactive
FIERLARNQFLNAYSMLDCE | inactive
YMAAVTFFEVY | 0.012 ± 0.34
QDALVSCWKFGAVSDQCDYW | inactive
CLALYRGRMLSGKVRRCTTS | inactive
GQTILC | inactive
CFKRLVIIMGGLGAA | inactive

Substance | amyloid nucleation score
FFLMKDSLLSSVERSIGVIG | inactive
QYLWPAKFFQTLYIVGCTTP | inactive
VYRFGMVLRNVHLFRLLIGG | inactive
LSAMLDTDAYRGLW | inactive
GRKDLKYIQSGDMQFQSSKW | 0.138 ± 1
MLCRPTGRGLDGQCERLTVR | inactive
FLAIGLFSSNT | 1.73 ± 0.061
PVITSYSSIYVSCDIVW | inactive
RWCDA | -0.041 ± 0.31
SPQFELLDITKPCRT | inactive
IFKNTVTLRN | inactive
TSERLMVSQITAHILGFHEI | inactive
YEVNGFAQNRA | -0.564 ± 1
ISMFCMIGFEVW | inactive
EVGDPMYRTIGVKFGPLAME | inactive
PTSSKLKFAFINYVLTVSTS | inactive
GYAHLLMANLRWSSTRLA | inactive
RFRVLTYIISYSFSFCHHVW | 0.356 ± 0.27
RMFGNIDCFCIIIMKVSWSG | inactive
SLNKWVGCRSRIRWDLGTQF | inactive
NINSTFQRQVLSDCLVQWYM | inactive
VWYVSLTMIWLGSMALGFAR | inactive
GSFVVMF | inactive

Substance | amyloid nucleation score
YCQIK | inactive
VLLPPGVE | -0.23 ± 0.98
NIHFSITAQ | inactive
RENSKFFLIRC | inactive
IYCKVVALKRFHWMEAYA | inactive
LWYVDTGAIILG | inactive
SRVITDVHERVAVGGVVIWD | 0.003 ± 0.31
HFKVFT | inactive
AGWIDAYRFYNELLLGLRDH | inactive
APRLFKQIIVTQTDGSLEGE | inactive
HMFSGVG | inactive
SSNLYMSSFWTSMMTWPTNY | inactive
KGFDRMMGVH | inactive
TPDQDMLVMPWISYGGGYWR | inactive
VQGTILRSRQNCTL | 0.308 ± 0.48
SWFGYSVIDAKYGDIRTPVK | inactive
SVAKNCWCPKCGMSSTFDSI | inactive
YSSANNCNWC | 1.7 ± 0.077
NYGPGHRGGSN | inactive
SAWQPWMKDRSS | inactive
GCVCQLR | inactive
FINRVSPYMRSNRSLVGVSS | inactive
LGQFDTDTLAHDSMGAGNAV | 1.24 ± 0.16

Substance | amyloid nucleation score
RQGAKVRTGGHKKQSGSSCR | inactive
PNGALK | inactive
MCVRPLPSRLGTVGLWN | inactive
ACAATYLIADAFYELSGIGL | inactive
PMQAS | inactive
LLLASVRVRFRHWPTYLRYF | inactive
IPSWREWVYGVINWRAGSSP | inactive
HVSSKASLLPMYRY | 0.237 ± 0.75
LSYESCFGSHVGMRAEGCSR | -0.485 ± 1.2
CKTVAYEYFTGLSLVLDFTR | inactive
AEALCQFIYCFAASKLTGVC | inactive
FLQNFWA | inactive
PFYFCGHSQYSWTAW | inactive
RTINWASCQSWLKVTSPKGL | inactive
KTACFLVNCLNYQRAERTLR | 1.23 ± 0.18
AREYMI | inactive
IKLHGQAHLIMSTLLPYMHK | inactive
YSALRFSKSCGRPCCVYNSF | inactive
VPKAYR | inactive
LSFTEY | inactive
PLTVI | inactive
ANSTNKQC | inactive
VICIKEEEG | inactive

Substance | amyloid nucleation score
LGICGVRRSLMKRR | inactive
FSRMPSIKCMNCMCKLFSRK | 1.06 ± 0.11
VIMYHMKFDNEIWVMHLLRN | inactive
RCSHDYGLWVVDWVVSKWGC | inactive
FEYNRQYTRLSSVRVRIRGS | inactive
DFLVPIKARNYCLNVGPNTY | inactive
ERSFAYDYDCSVCFTHAFAT | inactive
VCKMSNMFNSFCYYASQFCY | inactive
SCTELFTPKGR | inactive
VMCLRTFGASSFFI | -0.023 ± 0.55
DYFEYCRRSKRFPKKDQPVN | -0.638 ± 0.84
LRVCTELRMVLDISYNVGNF | 0.68 ± 0.18
AFYLMLVS | 1.12 ± 0.12
FILMLVTKLRAHLRGEIRGE | inactive
NGFRI | inactive
PDMSNIQTFWDSRVMGRTR | inactive
YVGVVVYLLPMLGALYGFGD | inactive
SENGECKATVLCMLSSPVVC | inactive
MCSGAAFMRRVC | inactive
HKPFNFYLGLPLTVV | inactive
DLFWLGFNWHLGCRFYVGAN | inactive
NSIIGTVDGKSGSNRVRSP | inactive
CALCRYC | inactive

Substance | amyloid nucleation score
VYVFAQ | inactive
FSLSPIFWYAG | inactive
FVQRWCYGGKCNGCVGSSGG | inactive
ETYNRR | -0.227 ± 0.69
LFDVKDRSTMVVVIPCFHGS | 2.23 ± 0.065
WTSDSRCYMNLKRCRGYTLF | inactive
RPRQSTIMKNDTSSVAVSGL | -0.582 ± 1.1
TRWGCSSSSNFGCFDDKRRL | inactive
LLGLFRLFKPQAFKGSPAAS | inactive
RFLDRTLIGYVCGKRRSPSS | inactive
GWIAYRGSDR | inactive
EAFSSHKNFNVTCFPK | 1.77 ± 0.11
RSPYNFCKALRMGWVTNKIS | inactive
AVIDRNYVRTALAVMIASGH | inactive
YDCVGDGWRPWLRPEDRSHV | inactive
AQRVMD | inactive
FGAMGGCGNRWKFYQRFTDP | inactive
RIDIGY | 0.612 ± 0.17
HRDCRKFCSMNTHANMNMLS | inactive
IENNSPLSSFLGYGKCIP | inactive
HDYYFDTRDTIRVIL | inactive
RSRVRKRYWLTACP | inactive
LIKSSRLCLPKYTGVCNSHK | -0.189 ± 0.88

Substance | amyloid nucleation score
WWAVTKFTAFYMRVIYKIGR | inactive
GCIVFCCRTLVNFDVVVYWF | inactive
VQAYLCEYR | inactive
SFGLWTGFGVMYVRIVDVTH | inactive
IGLLYLHLPNIALINRSVVG | inactive
CNDFNSYVRCYIMSNNFFRY | inactive
ISISLLFGMTFTSFSRLIHF | 1.42 ± 0.11
LNLETLISWLSVCPRGRTEE | inactive
NGFGSNNVGSGERLADVAVI | inactive
NYYRC | inactive
RFIISCQRYVETTT | inactive
CTGSWMVTAERLARACHTRL | inactive
RLQVRLSLLRWFRNYGLTIA | inactive
NDMFRVSCSQNSESQYNLNG | inactive
HIRSSDHGGSLTGLTCRDTD | inactive
LAYVLKDYFNCYGVIVVISL | inactive
VSIDSSFLHRSLLS | inactive
FWFLLWKRKDTLWAFR | inactive
SVLHVLYCVGSECVYVSSSR | inactive
CRCDFFDSKAAPIGGGNNVL | inactive
CMFYLLVSLPWVAVTSVLRV | inactive
LDQPGPDNLNVVNKLNFDWH | 0.419 ± 0.26
CCRLVRHFE | inactive
